Literature values, collected in PMC7751257.
pKd: −log10 of the molar value.

Molecular target: Spike RBD RBD (SARS-CoV-2) (UniProt P0DTC2)

For “SBP1 α1 helix 23-mer (from UniProt Q9BYF1)”, the pKd is given as 7.33.
